From the DeepSol protein solubility set

test: soluble on expression in E. coli; label from the status in PepcDB or PDB records

Soluble on expression in E. coli, soluble:
MEYEWKPDEQGLQQILQLLKESQSPDTTIQRTVQQKLEQLNQYPDFNNYLIFVLTKLKSEDEPTRSLSGLILKNNVKAHFQNFPNGVTDFIKSECLNNIGDSSPLIRATVGILITTIASKGELQNWPDLLPKLCSLLDSEDYNTCEGAFGALQKICEDSAEILDSDVLDRPLNIMIPKFLQFFKHSSPKIRSHAVACVNQFIISRTQALMLHIDSFTENLFALAGDEEPEVRKNVCRALVMLLEVRMDRLLPHMHNIVEYMLQRTQDQDENVALEACEFWLTLAEQPICKDVLVRHLPKLIPVLVNGMKYSDIDIILLKGDVEEDETIPDSEQDIRPRFHRSRTVAQQHDEDGIEEEDDDDDEIDDDDTISDWNLRKCSAAALDVLANVYRDELLPHILPLLKELLFHHEWVVKESGILVLGAIAEGCMQGMIPYLPELIPHLIQCLSDKKALVRSITCWTLSRYAHWVVSQPPDTYLKPLMTELLKRILDSNKRVQEAACSAFATLEEEACTELVPYLAYILDTLVFAFSKYQHKNLLILYDAIGTLADSVGHHLNKPEYIQMLMPPLIQKWNMLKDEDKDLFPLLECLSSVATALQSGFLPYCEPVYQRCVNLVQKTLAQAMLNNAQPDQYEAPDKDFMIVALDLLSGLAEGLGGNIEQLVARSNILTLMYQCMQDKMPEVRQSSFALLGDLTKACFQHVKPCIADFMPILGTNLNPEFISVCNNATWAIGEISIQMGIEMQPYIPMVLHQLVEIINRPNTPKTLLENTAITIGRLGYVCPQEVAPMLQQFIRPWCTSLRNIRDNEEKDSAFRGICTMISVNPSGVIQDFIFFCDAVASWINPKDDLRDMFCKILHGFKNQVGDENWRRFSDQFPLPLKERLAAFYGV
MFDGIGFMELLLIGVLGLIVLGPERLPVAVRSVTSWVRAMKRMANSVKEELEQELKIEQLHADLKKAESKGLSNLSPELQESIEQLKQAAQSVNRPYQVQDTPSAQDNQIHNPASQTVSTEASSTSASSAPKSESIQGEDPRSNTKANGLEHHHHHH
MFEFKHIKAFDRAFADNPGPMVVFATPGMLHAGQSLQIFRKWAGNEKNMVIMPGYCVQGTVGHKILSGQRKLEMEGRQVLEVKMQVEYMSFSAHADAKGIMQLVGQAEPESVLLVHGEAKKMEFLKQKIEQELRVNCYMPANGETVTLPTSPSIPVGISLGLLKREMAQGLLPEAKKPRLLHGTLIMKDSNFRLVSSEQALKELGLAEHQLRFTCRVHLHDTRKEQETALRVYSHLKSVLKDHCVQHLPDGSVTVESVLLQAAAPSEDPGTKVLLVSWTYQDEELGSFLTSLLKKGLPQAPS
MFENITAAPADPILGLADLFRADERPGKINLGIGVYKDETGKTPVLTSVKKAEQYLLENETTKNYLGIDGIPEFGRCTQELLFGKGSALINDKRARTAQTPGGTGALRVAADFLAKNTSVKRVWVSNPSWPNHKSVFNSAGLEVREYAYYDAENHTLDFDALINSLNEAQAGDVVLFHGCCHAPTGIDPTLEQWQTLAQLSVEKGWLPLFDFAYQGFARGLEEDAEGLRAFAAMHKELIVASSYSKNFGLYNERVGACTLVAADSETVDRAFSQMKAAILANYSNPPAHGASVVATILSNDALRAIWEQELTDMRQRIQRMRQLFVNTLQEKGANRDFSFIIKQNGMFSFSGLTKEQVLRLREEFGVYAVASGLVNVAGMTPDNMAPLCEAIVAVL
MFKDFFNRTKKKKYLTVQDSKNNDVPAGIMTKCPKCKKIMYTKELAENLNVCFNCDHHIALTAYKRIEAISDEGSFTEFDKGMTSANPLDFPSYLEKIEKDQQKTGLKEAVVTGTAQLDGMKFGVAVMDSRFRMGSMGSVIGEKICRIIDYCTENRLPFILFSASGGARMQEGIISLMQMGKTSVSLKRHSDAGLLYISYLTHPTTGGVSASFASVGDINLSEPKALIGFAGRRVIEQTINEKLPDDFQTAEFLLEHGQLDKVVHRNDMRQTLSEILKIHQEVTK
MFKNEDAKATGTSEMAPALVAAFGGKENITNLDACITRLRVSVADVSKVDQAGLKKLGAAGVVVAGSGVQAIFGTKSDNLKTEMDEYIRNFGSRSHHHHHH
MFLYTETDQNLQACIDACNHCYRTCLRMAMNHCLEAGGKHVEADHLRLMMNCAEICQTSLNFMLSGSRFSPKVCGVCAEICDACAKSCEQLDGMEECVQTCRQCAEHCRKMAALEHHHHHH
MFPRALAIGTPAQHKATEAPVTSTSASGLARFNTLEETAALAELHEACAATAWARHLLAARPFATAEDLYAASDAAMAELSAEDLAEAMAGHPPIGRPKPGDATSSREQAGMAGAAEELKAEMLELNLAYQDKFGHVFLICATGRTGEQMRDAALERIGNSPEQEREIVRTELGKINRIRLTRLVEQDARPAAALEHHHHHH

Soluble on expression in E. coli, not soluble:
MEYFNVGKIVNTQGLQGEMRVLSVSDFAEERFKKGSQLALFDDKDRFVQEVTIVSHRKQKHFDIIKFKDMYHINAIEKYKGYTLKVSKDNQGDLQEGEFYYHQIIGMAVYEKDVLIGHVKEILQPGANDVWIVKRQGKRDLLLPYIPPVVLNVDVPNKRVDVELMEGLDDED
MFAIISVTGADHTGIIAAVATKCADLGVNINNVSQTIMDGYFTMILHVSFDDSATDIATIQESMADVEKDQNLVIRIQSQAIFDAMNII
MFCDRIRGSLTKDKERIMSSKNYIDVIIDGKIYNIGGFESEAYLQKVASYINNMIAEFKQNENYRVQKVDMQRILLEINIANDYFKAKKQADLLQNDIELKEKEVYDLKHELIVSDSKAETATKELNEALEKIESLEKEIIKLQTELEK
MFDDKILLITGGTGSFGNAVMKQFLDSNIKEIRIFSRDEKKQDDIRKKYNNSKLKFYIGDVRDSQSVETAMRDVDYVFHAAALKQVPSCEFFPVEAVKTNIIGTENVLQSAIHQNVKKVICLSTDKAAYPINAMGISKAMMEKVFVAKSRNIRSEQTLICGTRYGNVMASRGSVIPLFIDKIKAGEPLTITDPDMTRFLMSLEDAVELVVHAFKHAETGDIMVQKAPSSTVGDLATALLELFEADNAIEIIGTRHGEKKAETLLTREEYAQCEDMGDYFRVPADSRDLNYSNYVETGNEKITQSYEYNSDNTHILTVEEIKEKLLTLEYVRNELNDYKASMR
MFDLPVETEEQRRNYRIFRKELIQEGFVMIQYSIYVRVCPSREFANRIENRIKKNLPLEGNVRLLCVTEKQYDDMKLLVGSRQTSETAIGTERLIIILEHHHHHH
MFERVREDIQSVFHRDPAARNALEVLTCYPGLHAVWLHRLAHGLWTSGWKWLARLVSNFGRWMTGIEIHPGARIGRRFFIDHGMGIVIGETAEIGDDVTLYQGVTLGGTTWNKGKRHPTLGNNVVVGAGAKVLGPFTVGEGAKVGSNAVVTKEVPPGATVVGIPGRIIMREDSEQQAKRQAMAEKLGFDAYGVSQDMPDPVARAIGQLLDHLQAVDGRLEGMCQALTALGSDYCAKDLPVLREEDFAGVKDEDGNPAA
MFFSNSLHANAAPQHFERIAKILQAKRRAGDFSTCDVKIQLKTGFDMVHSVVICAHSDVFSETFDNQRAPYQPFNMTDFDPDSVRRVFDWMYSGEIDIPETTIADVLAVASYLRVTMLQRQIEQKILNHNGSPIMALNIASARAFSVMDHTMNDLVHGFTEKMTGLGIDEVAKLTANSMIAVMAAVLPMKKKVPLVNMFISWIVCKQPERETINTIIQSLVISDITYDTLYAIRYSLKQYLTNSEIASKSQLTISPSGTIEIKIVPKKESMVSEKSSSLHSVVELPPNQYYRTRSEISAIDKMPDPFVRNLPRTQSASSMIARPRSSGGFPQYFTRSEVEDLQQMTDPFSKSERGMTPTRGPPMGFSSVQCTVKYPGWSKDVMETNKEMYKQCKMNGRYILSEAQTESNAPVFLRPAVGGKVSSSRGALSNLSNSEQNKKYGRGVTQSFSGHSLNDNDPMPKEHDPKVQPSVIISCLSLPTTSPVSVVKPKMTGVKKTDSEIMEINALPSSFNSNSFYTAKTSNTSGHSNDQSAGKSEKSQRSQKSEKSQKLKKPIPQSQYLYPN
MFGFSNSDISVSSGHTSHLDEVLPQSMYMVDADGRMVRWSPWFRDRIAGFSDAEMASTDFLELIHPEDRALVRQRMRKILDQGVQDSLEVRIFLKGGPAFRWFLLMANRYEYAGHYFITGTGIDIT
MFHGIPATPGIGAPGNKPELYEEVKLYKNAREREKYDNMAELFAVVKTMQALEKAYIKDCVSPSEYTAACSRLLVQYKAAFRQVQGSEISSIDEFCRKFRLDCPLAMERIKEDRPITIKDDKGNLNRCIADVVSLFITVMDKLRLEIRAMDEIQPDLRELMETMHRMSHLPPDFEGRQTVSQWLQTLSGMSASDELDDSQVRQMLFDLESAYNAFNRFLHALEHHHHHH
MFKKVLGLRHWNNNVVKIPPPAAESGANASDVVVDTPEPYERILCQKILMGISTIDIIRNAIIKSCEQLNIEKERINELNEQNDKARSSLKSLVEFITEIGTTSSDIGCRMGDLNTSLTQINACIKEIQKIANQTNLIAINSAIEAARVGDAGRGFSVISKEVKNLSEDVKHSSKSVSTLTSVIKDNTARVSEVLDNQQPVIDNITTNINQIVESIGIVIDKSLSMKSVMQYISTVQFLNIVKVDHVIWKMEVYKLLLNKDINSKITMHDQCRLGKWYYGFEGQQFSNYYSFRSLEAPHKEVHTAGHSALNYFAAGDMNAMSQELDRMERSSNEVVNQLEMLAVDLLKETTL
MFLNGNCLETLKKKEPEGGRRRLSHPGNMGWMRPSQETTPPDRSHHSGFGLFCGDPGPEIEPFSLWVFPQEMVLEIHQLFMDHEYPCHHITSHCTWVAAHWTTSQSCAAWQGCRRACCSTWWKSPAQCTRPTVMSATFETAQEPGPS
MFMEFSAGLMPLETALTQMLSRITPLTAVETLPLVNCFGRILATDIVSPLDVPGFDNSAMDGYAVRVADLSADKPLPVAGKAFAGQPYQGEWPAGTCIRIMTGAPVPAGCEAVVMQEQTEQTDDGVRFTADVRCGQNIRRRGEDIRQDAVVFPAGTRLTTAELPVLASLGIADAQVVRKVRVALFSTGDELQLPGQPLEAGQIYDTNRLTIHLMLQQLGCEVINLGIIPDDPGKLRAAFIDADSQADVVISSGGVSVGEADYTKTILEELGEIAFWKLAIKPGKPFAFGKLSNSWFCGLPGNPVSAALTFYQLVQPLLAKLGGNTASAVPPRQRVRTASRLKKTPGRLDFQRGILQRSANGELEVTTTGHQGSHIFSSFSLGNCFIVLERERGNVEPGEWVEVEPFNALFGGL
MFNALLLTQQDKITHATVTQINDDQLPAGNVTVAVNYSSLNYKDGLAITGKGKIIREFPMVPGIDFAGTVLESADARYQVGDAVVLTGWGVGENHWGGMAQKARLNADWLVKLPQGLTSQQAMMIGTAGFTAMLCVQALIDGGIKPEDGEILVTGASGGVGSVAVTLLAQLGYKVVAVTGRVAQNGPLLEQLGASRVIDRQEFSEASRPLEKQLWVGAVDTVGSKVLAKVLAQMHYNGVVAACGLAGGFDLPTTVMPFILRNVRLQGVDSVSCPVEKRLAAWKKLAELLPASYYAQACHEISLSQVPEYAEAITNGQVTGRVVVKL
MFNLKREHFRDDYLYRFYQYGDTHSKIPSNLYKVLARKLDMISASENINDLRSPPANHLELLEPKENKIYSIRVNKQYCLIFKYENNEVNNLYLDPHSYNL
MFNQTQTVTYPATFLGAKKFKGEIDGSNIDTCSVLVATPLPAQSGNAVGFTAAQMKFGDSKNFSKLENLKYPCEVMVTVEMTSTGKGMVPSLIDFQVAEKPKG
